Measurements taken from the DeepSol protein solubility set.

Assay: soluble on expression in E. coli; label from the status in PepcDB or PDB records

Row | Sequence | soluble on expression in E. coli
1 | MGSDKIHHHHHHMPRSARIDIPNLLQHVIVRGIERRDIFLSDDDRWDFRNRLQKLLLEMDVDCLAWSLMSNHFHLLLRPTRTPLAPFMRRLLTGYAVSFNLRHNRSGHLFQNRYKSIVCDEDSYLLELVRYIHLNPLRAGIVADLGALDTFPWSGHAMLMGKIVLEGQGINEVLRYFGPGVSASRRTYREFMADGVLQGERPDLVGKRSGASGGGCPASDRRILGDENFVEQLKTEECLHQQLRRPMSIESIVATIADQYGVAPKAIASKSRLPRTLDARAVVCYTAVEEGHTGAEVGRVLGMTRSGVAIARRRGEEVLARIESTAEFQHDTRLDSTN | not soluble
2 | MGSDKIHHHHHHMPTLEPKIPGISLNYVVPTPEPELLTGVPVFFGLVTEEVKEAKKLTLATHFQQYFGQAKGYLADAIKGFFENGGRLCYVIALSNNTLEALQQGLETSEVLENIDLICVPDIMLGSDGEVIQMQQAILKHCEQMGDRFAILDALNDIGKLNEQRKRISSQNGALYAPWLKVEFRVDPIPACGHIAGIYASCDRTVGVHGAPANIPLAGVLDLSFSLTPTDQEQLNPKNEAGVNCIRSFQGRGMRVWGVRTLSPIPEWQYVNVRRLFLTFGRWVNRNLADTVFEPNAFPLWVRLQRELSIYCESLWRQGAIQGALPQEAFYVKCDAETNPPENREMGQVIAEIGLAPTIPGEFIQLLVVQSSSGITLT | not soluble
3 | MGSDKIHHHHHHMPTLLMITPENSEINKFKAHQLNNFTQLTMPYLAGFVPEEYSIRLLDEYTEPILFEKVDLVAITVNTPNAPHVYSVSKRFRELGAWVALGGPHVTLNPEEAACHGDTIFVGEAEETWPEFLKDFLSGNMQKVYTSLQVPSLDGLPIPRRDLIVGHRFTSGAVFASRGCPHHCSYCSLKKIYHNKLRTRPVDEVIKDIGSMPNKYFVFWDDNFFADPVYTKALLKELARLNKRWAAQVTAYSCEDEELLSLAKSAGCLYLFLGLESFSEQGLRDANKNFNKIEEYGKVVNKLHRHGISIQAGIVFGFDSDTLDVFETTLKACNKIGVDGVTASILTPFPGTSIYEQYKKEGRLLDVDWDHYNGKTRVAYVPKRMNCKELLNGYNEFRGKFHSWRSIVKRISKSRVNIFYSLAMNYGYKRAYRNFTRLGIGERSDESLGQRMEQHLRNWPR | not soluble
4 | MGSDKIHHHHHHMPVAKKYFEIRWHGRAGQGAKSASQMLAEAALEAGKYVQAFPEYGAERTGAPMRAFNRIGDEYIRVRSAVENPDVVVVIDETLLSPAIVEGLSEDGILLVNTVKDFEFVRKKTGFNGKICVVDATDIALQEIKRGIPNTPMLGALVRVTGIVPLEAIEKRIEKMFGKKFPQEVIDANKRALRRGYEEVKCSE | soluble
5 | MGSDKIHHHHHHMQEDISRKSPMLSNIKSWYRRRIIENHSVPDDIWQNAIARLRFLQALEAVELERLRECVVLFLHVKQISGAHGLVITDEMRVLIAAQACILILNLDLDYYDGWVEIIVYPGEFIRDYEYVDEDGIVHHAVEPASGESWLGGPVILSWEDAVAAVSGTEISQGYNVVIHEFAHKLDMLNGEANGFPPIHPDMSRQAWSEAFSKAYADFCRSIDAGEMMEIDLYAAESPAEFFAVISEAFFEMPISVRIHFPAVYEQLALFYRQDPAQRRSEP | not soluble
6 | MGSDKIHHHHHHMQKLTLKEVQAKAVEILVYIDNICRSNNLHYTLFYGTLIGVERHKGFIPWDDDIDIVMPRPDYELLIKILKNDSNYQLLSFETRKHFRYPFAKLVDPNTVAHSKQYFGGEDKDLGVFVDIFPIDGIPDTQKERNELRKITEQYRLNLMDTLGLSYARSFHLSKALIKLITRYPNHFKVKKVGNNQYWRDLYQTEAKKTPFGATKHCGYLEWIHIDWGVFPNEWFLEYEDVEFEGHKFMAIKNRKQFLTLRYGDYMEMPPVEERITHHPYDFYQK | not soluble
7 | MGSDKIHHHHHHMQKRHKDRQCYFNELANTSRSFYIDYVKQFISLSPSTHILEIGCGEGGNLLPFAELGCKVTGIDRAASRIHQAETFFTASGYKGEFTTTDFFNFSSASRYQLILIHDVIEHISNKEEFFRCLSPLLAKRGIIFWGFPSWQMPFGGHQQICHNRFVSSLPFIHLCPGILYRFLLRCFHETPSCIEELSDIKRCRMTIDTFEQLAEKYGYEITDRQLWFINPHYQQKFHLRPRKLYPVLAQLKYIRNYFSTSCFYITRHRELHD | not soluble
8 | MGSDKIHHHHHHMQLGTGLFTCQQRPDDDRETSEIYDEMLELGEVIDNAGLDSAWVSEHHFLDDDYLSGVTPALGALAAVTDNIEIGSCIALAPLYDSIRLAEDIATVDQISGGRTTLGMAIGSNVSEFDAFGIPDDERAERLADAVDTLRGAWSDGPLDYEPEFHDISSDVTVTPKPAHDVPLMLGGASRPAVRRAARTADAWCAPSSLSVDGVRKRVEDIRNVRDDEDIEGDFQVYVLQHGFIGDSREDAWAQMRDGYLYIQRRYEEIFSGETVAELDEERKQELKEQAIFGTPDQVTAELESYREALGDDIHFIFRTYHPGTGTQEMAECIRRLGEEVQPKIS | not soluble
9 | MGSDKIHHHHHHMQSLYTSASTMAQLQKQLDTTGHNLANANTNGYKRRDSQFNELLVRNLNNQPAGLTPGSLTTPAGLRLGVGGYVANEATRFATGTFQNTGRKLDAALSNPHHFFGVIDADGVTKFTRDGNFELSPQANGQVLLTDDAGRSVINQANEPITFPDDATSIELNKDGNITGVLNGERRVLARIGVADIPNHGELTDVGGGLYTTAGQYQNATGNPLTVGTLETSNVDMATEMTNLTQIQRAYQFNSKALTTSDQMMGIVTSLK | not soluble
10 | MGSDKIHHHHHHMQTIQLSNIFKQQAHQTILKDFTLTIPAQSNIGIQMSHVEATTLFNLLRQTTPQTSGVMTGLTPARIQAIFHDDGFYPQLTVSTYLKTFQHISTFETDLDDILQYFALKDVAHTKIKHLSFDQQQRLALLRAFILQPDLLLIESPLTNLTNAGIELYLAALAYTREHGVTVLLTSYSLEELVLTSTTIFRYRPNQGLELTDLATESSSDSAHTSEDTPRPIFKIASKVEDKTVFFSPNEIDFIESVNGVSQLNVSGEQFTSSQTMSELEQQLTTLGFFRCHRSYLVNLQQIAELISYSRNSYTLILKNKSKLPLSRGKLTDLKALINF | not soluble
11 | MGSDKIHHHHHHMQVEQRTLNTAAHPFQITAYWLDQISDFETAVDYPIMIICPGGGFTYHSGREEAPIATRMMAAGMHTVVLNYQLIVGDQSVYPWALQQLGATIDWITTQASAHHVDCQRIILAGFSAGGHVVATYNGVATQPELRTRYHLDHYQGQHAAIILGYPVIDLTAGFPTTSAARNQITTDARLWAAQRLVTPASKPAFVWQTATDESVPPINSLKYVQAMLQHQVATAYHLFGSGIHGLALANHVTQKPGKDKYLNDQAAIWPQLALRWLQEQGLLAGNY | not soluble
12 | MGSDKIHHHHHHMQVRDFIKHLKNGERPPLTLILGEESALRQQAQHAIASMIPEDQQAMNFGRYDMQQTPVGAALNDATSMPFFGDYREVVIDDPYFLTGEKNADKIDHDLAGLQAYFENPVPSTMMVIIAPYKKLDERKRLTKALKKAALIVNAAPLDEREARAALAQTFKKHQVTIDAPALDTLVQRTNGQYSIMMGEVRKLLTYASDGSPLTVAAVEALVPKQLNDRVFDLVTDVLRKNAAAALALYRDLLAQREEPIRLNALMLGQFRLLLQVKLLAKKGYSQGDIAGTLKAHPYRVKLAMRQVDRLPYQQLATAYSGLVDTETAMKTGTIDKALAFELFMLKYTGQQSGKHVRG | not soluble
13 | MGSDKIHHHHHHMQVRIERAERIESELEEHVGDQTFVEESRFLEEDEQREGEILDQIIFVDGKRRSFVRITTDEGITGIFAELCVGAVIWDREGGTKTLFSPDKPPVKERVLGFSQSFQEEGYEEVGGILFKVVKEGKDAMQSIDLYMRSLEIEEVRKHMDKNILIVKDGPAARELPFEENVGPIGLVKNIGVTELSKEDFKKLRFLKKGKRSKMFVSSRETPLKKVGAYVKLIDGEGIRGLVRLETYVKDDNQIPYIRKVFDDLAKTLPHLTADLPIPRLPENILPIQFLEENLSYYLTDKNYMNTRLFAYIGR | soluble
14 | MGSDKIHHHHHHMRERTVDYSFCGMVRSRERLARQIVFHHIPKTAGSSFNQILRTLYRDDEVCDAALDDELDEVMADETRRYELFVGHFSFDALHRHFGGATRLTFLRDPVQRCISQYHNWHDASRYSDAWIGRSDTNPDVIKALKMTSEMSLCEFVSSDNLVISDSAQNMMTRYLAPSVEWKKERGYYDAELVEKAKRNLVEYFHFFGLTEQFDRSLVLLAHTLGIRPWERSDALLTNRNPKKASFDSVYNTTPEEGGVLRDYNLMDIELYEFAVKEFNRRFDAGYQKLVECAFEYLADKDTRDMGNAGDFYAFDMTNAVGARGLHFLESTRLPCGADVLGRWTGLEPRAVWEIPLRAGRDSHVVIEVDYIDSVSPEALAPEHFTLNGMPARQHAFSAEGSIQRLRLVFSAGAALAGRMLHTLKLTTPLVRAEDGTRDVGVLLLRLQSYSV | not soluble
15 | MGSDKIHHHHHHMRGIGLTHAFADISGLAFDRLFMVTETDGTFITARQFPQMVKFIPAPLHDGLHLSAPDGSSAVVRFSDFATQAEPTEVWGNHFTALIAPAAVNQWLSGFFKRDVQLRWLGPQLTRRVKRHDAVPLSFADGYPYLLANEASLRDLQQRCPASVSIEQFRPNLVVTGAAAWDEDSWKVIRIGEVVFDVAKPCSRCIFTTISPERGQKHPAGEPLETLKRFRTALDNGDVDFGQNLIARNSGVIRVGDEVEILTRGPAKAYGAGESDDTPAPEAQQQATVAIEWQGQQFTGNNQQVLLEQLEQQGIRVPYSCRAGICGSCRIRLEEGEVSPLKKNAVAGDGTILACSCVPKTALRLAP | not soluble
16 | MGSDKIHHHHHHMRHENRVAWTEGMFLRVQHFQQSDRWTERLVRSVARSLTPYPWGILEIGLDRSALAIGQFALSGLRGMLPDGTPFDAPEDTDLPAALELDESVKNAVIYLALPARQPGKADMAQTGTSAVNSVRLVASPYEAPDANVETDFLAPIDVGRLNLKLLKTGDDLAGYELLGLARVVEVRSDKAVLLDPDFIPASLNCTASSRLHELMTELLGIVRHRAEAIAERIGDPTIRGTAEVGDYFLLQILNRADPLLKHALSNATRLHPIQFYEQCIQLAGELATFTMESKRATDFPAYRHDDLKATFGAVFEDLRTSLSSVLAQSAVAIELVERRHGVRVGTINDRSLLRDAGFVLAVRADMSAEDVRRTLPARIKVGPVERIAELVNVALPGIPVRPLPVLPRQLPYRAGTIYFELDTKTPLWKQLETSGAIALHLAGDFPGLELEMWALRE | not soluble
17 | MGSDKIHHHHHHMRHTILFIIDGLPGGGAERVVITLAGEMAARGHQVTIASLQASLDYAIPAGVDYLLVEDRYRGPLRRQTEIRRRARQLDGALRRHFAGRRIDLAVSNLPKTDRIVAACPYLEQAWLCLHCAIQAGQLAERSGIRRWLKKRQLVRTYSGRKLITVCQALQRDVLDCGIRPARMEAIYNPFDLDWIRRRAAQPCPMDGEDFILHVGRFNHQKRHDRLLEAFKLSGYPGKLALLGQGGQAELSAIQVQAERLGVADRLVVAGFTDNPYAYMRAARALVLSSDYEGFGNVLVEALACGTPVASTNCPEGPAEILTGPLSIGLSELNGQALADAIKRVLASRPLAGPEQLAAFAQDAVVERYLALVNQ | not soluble
18 | MGSDKIHHHHHHMRILTFTGKGGVGKTSVSAATAVRLSEMGHRTLVLSTDPAHSLSDSFNIQLGAEPTKIKENLHAIEVNPYVDLKQNWHSVQKYYTRIFMAQGVSGVMADEMTILPGMEELFSLLRIKRYKSAGLYDALVLDTAPTGETLRLLSLPDTLSWGMKAVKNVNKYIVRPLSKPLSKMSDKIAYYIPPEDAIESVDQVFDELEDIREILTDNVKSTVRLVMNAEKMSIKETMRALTYLNLYGFKVDMVLVNKLLDAQENSGYLEKWKGIQQKYLGEIEEGFSPLPVKKLKMYDQEIVGVKSLEVFAHDIYGDTDPSGMMYDEPPIKFVRQGDVYEVQLKLMFANPVDIDVWVTGDELFVQIGNQRKIITLPVSLTGLEPGDAVFKDKWLHIPFDLEKQGQHHRTREYNKA | not soluble
